T1: CLL1 on the surface of cells (HL60, KG1, Hela-CLL1) (UniProt Q5QGZ9 1-265, limits assumed)
T1 construct: whole, on cells; HL60 and KG1 are human cell lines; also called CLEC12A; CD371
T1 sequence (looked up): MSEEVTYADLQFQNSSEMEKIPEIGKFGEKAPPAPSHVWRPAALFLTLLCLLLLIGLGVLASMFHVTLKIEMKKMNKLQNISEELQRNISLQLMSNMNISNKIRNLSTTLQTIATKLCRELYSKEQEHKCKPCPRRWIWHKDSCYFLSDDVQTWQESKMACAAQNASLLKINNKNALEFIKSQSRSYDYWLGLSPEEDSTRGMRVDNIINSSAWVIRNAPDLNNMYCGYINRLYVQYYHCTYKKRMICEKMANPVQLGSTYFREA

B1: C7 single-domain antibody with the Fc fragment of murine IgG2a at the C-terminal (Fc fusion, not shown: a dimerising Fc or GST; small tags and cut ends)
VHH: QVQLVESGGGLVQPGGSLRLSCAASGFTFSSYAMGWARQVPGKEVEWVSGIYSDGSTNYADSVKGRFTISRDNAKNTVYLQMNSLRPEDTAVYHCATDPTVHSDLPVWGQGTLVTVSS
notes: also called C7 VHH-mIgG2aFc
B2: C1 single-domain antibody with the Fc fragment of murine IgG2a at the C-terminal (Fc fusion)
chain: QVQLVESGGGLVQPGGSLRLSCAASGFTFSSKTMGWARQVPGKAIEWLSGIYSDGSTYYADSVKGRFTISRDNAKNMVYLQMNSLKPEDTAVYYCATEDLTSYGRGTQVTVSS
notes: also called C1 VHH-mIgG2aFc; not shown: Fc fragment of murine IgG2a, added to the C-terminal of the VHH
B3: C5 single-domain antibody with the Fc fragment of murine IgG2a at the C-terminal (Fc fusion, not shown: a dimerising Fc or GST; small tags and cut ends)
VHH: QVQLVESGGGLVQPGGSLRLSCAASGFTFSSYDMGWARQVPGKAVEWVSGIYSDGSTYYADSVKGRFTISRDNAKNTVYLQMNSLKPEDTAVYYCATDPLTSELRSWGQGTQVTVSS
notes: also called C5 VHH-mIgG2aFc
B4: C9 single-domain antibody with the Fc fragment of murine IgG2a at the C-terminal (Fc fusion, not shown: a dimerising Fc or GST; small tags and cut ends)
VHH: QVQLVESGGGLVQPGGSLRLSCAASGFTFSSYAMGWARQVPGKDVEWVSGIYSDGSTYYADSVKGRFTISRYNAKNTVYLQMNSLKPEDTAVYYCATDPTLENQTTAWGQGTQVTVSS
notes: also called C9 VHH-mIgG2aFc
B5: C3 single-domain antibody with the Fc fragment of murine IgG2a at the C-terminal (Fc fusion, not shown: a dimerising Fc or GST; small tags and cut ends)
VHH: QVQLVESGGGLVQPGGSLRLSCAASGFTFSSYAMGWARQVPGKEVEWVSGIYSDGRTYYADSVKGRFTISRDNAKNEVYLQMNSLKPEDTAVYYCAPEPGQGVGDYWGQGTQVTVSS
notes: also called C3 VHH-mIgG2aFc
B6: scFv antibody M26 with the Fc fragment of murine IgG2a at the C-terminal (Fc fusion, not shown: a dimerising Fc or GST; small tags and cut ends)
scFv: EVQLQQSGPELVKPGASVKMSCKASGYTFTSYFIHWVKQKPGQGLEWIGFINPYNDGSKYNEKFKGKATLTSDKSSSTAYMELSSLTSEDSAVYYCTRDDGYYGYAMDYWGQGTSVTVSSGGGGSGGGGSGGGGSDIQMTQSPSSLSASLGERVSLTCRATQELSGYLSWLQQKPDGTIKRLIYAASTLDSGVPKRFSGNRSGSDYSLTISSLESEDFADYYCLQYAIYPYTFGGGTKLEIK
notes: also called M26 scFv

What follows are binders tested against T1, CLL1 on the surface of cells (HL60, …) (assay: flow cytometry, serial dilution of VHH-mIgG2a Fc on HL60 cells).

Binding result, binds:
B1
B2
B3
B4
B5

These binders were tested against T1, CLL1 on the surface of cells (HL60, …) (assay: flow cytometry, serial dilution of scFv-mIgG2a Fc on HL60 cells (comparator, weaker signal)).

Binding result, binds:
B6

Source: EP4714973A1 (Gracell Bioscience (Shanghai) Co., Ltd., dated 2026)
